Experimental data published in publication doi:10.1101/2022.07.21.500940 (bioRxiv, 2022).

Biological target: Human PCNA (human, UniProt P12004 1-261)
Assay: pull-down

Sequence of Human PCNA (P12004 whole entry): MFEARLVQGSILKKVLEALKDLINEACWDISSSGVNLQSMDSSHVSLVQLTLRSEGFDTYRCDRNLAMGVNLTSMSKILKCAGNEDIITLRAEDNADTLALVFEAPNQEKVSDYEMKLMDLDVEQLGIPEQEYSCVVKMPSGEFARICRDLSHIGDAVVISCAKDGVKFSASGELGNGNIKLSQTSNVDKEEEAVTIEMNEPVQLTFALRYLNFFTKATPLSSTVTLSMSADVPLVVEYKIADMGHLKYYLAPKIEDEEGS

## ARHPSTKVMKQMDIGVYFGLPPKRKEEKLL [GST-tagged SNM1A PIP box peptide (GST-PIP)]
  binding result: binds
